Reference: article PMC6733591

T1: ScRNase PNK (Las1-Grc3 complex) (Saccharomyces cerevisiae, UniProt P36146;Q07845 1-502;1-632)
T1 sequence 1: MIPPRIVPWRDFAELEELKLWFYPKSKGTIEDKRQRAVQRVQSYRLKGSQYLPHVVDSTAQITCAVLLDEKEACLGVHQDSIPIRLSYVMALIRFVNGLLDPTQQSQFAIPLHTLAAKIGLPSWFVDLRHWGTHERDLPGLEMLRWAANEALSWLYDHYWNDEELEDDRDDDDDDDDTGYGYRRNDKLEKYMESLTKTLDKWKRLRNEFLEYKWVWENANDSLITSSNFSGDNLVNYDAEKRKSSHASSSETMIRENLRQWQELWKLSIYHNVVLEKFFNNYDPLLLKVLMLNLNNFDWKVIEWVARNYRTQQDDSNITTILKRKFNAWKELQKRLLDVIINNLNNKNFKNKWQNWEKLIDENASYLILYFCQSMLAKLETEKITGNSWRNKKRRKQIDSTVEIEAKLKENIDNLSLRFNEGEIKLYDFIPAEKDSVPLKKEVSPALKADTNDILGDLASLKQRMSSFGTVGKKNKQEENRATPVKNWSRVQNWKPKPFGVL
T1 sequence 2: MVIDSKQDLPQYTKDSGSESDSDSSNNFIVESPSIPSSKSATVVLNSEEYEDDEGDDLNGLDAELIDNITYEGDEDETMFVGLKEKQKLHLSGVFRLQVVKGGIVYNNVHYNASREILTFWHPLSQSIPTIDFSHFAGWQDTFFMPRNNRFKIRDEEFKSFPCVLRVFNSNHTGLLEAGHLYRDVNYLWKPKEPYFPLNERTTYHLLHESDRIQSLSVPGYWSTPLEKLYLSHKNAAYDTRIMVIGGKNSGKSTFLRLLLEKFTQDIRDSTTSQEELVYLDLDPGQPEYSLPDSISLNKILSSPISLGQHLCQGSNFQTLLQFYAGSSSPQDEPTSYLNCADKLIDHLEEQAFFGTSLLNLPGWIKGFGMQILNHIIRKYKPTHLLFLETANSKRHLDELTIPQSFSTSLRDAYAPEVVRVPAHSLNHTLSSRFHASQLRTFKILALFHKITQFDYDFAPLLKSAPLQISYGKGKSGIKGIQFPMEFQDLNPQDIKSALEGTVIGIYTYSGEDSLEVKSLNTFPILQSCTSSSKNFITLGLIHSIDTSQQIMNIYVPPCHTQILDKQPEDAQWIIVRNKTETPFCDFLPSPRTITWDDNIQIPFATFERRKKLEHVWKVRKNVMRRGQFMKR

B1: SC-ITS2-cleaved-RNA (SC-ITS2-3-RNA annealed to SC-ITS2-5-RNA) (dsRNA)
RNA 1: GUCGUUUUA
RNA 2: GGUUUUACCAACUGCGGC
B2: SS-RNA (ssRNA)
RNA: ACGUACGCGGAAUACUUCGAA

Experiments:
[1] = target: Chaetomium thermophilum Las1 endoribonuclease (nuclease component of RNase PNK) (Chaetomium thermophilum); experiment: cryo-EM structure
[2] = target: T1, ScRNase PNK (Las1-Grc3 complex); experiment: ITC

Row | Molecule | stoichiometry N [1] | binding result [2]
1 | Chaetomium thermophilum Las1 endoribonuclease (nuclease component of RNase PNK) (enzyme) | 2 | 
2 | B1 |  | binds
3 | B2 |  | binds
